# Results reported in US20180030144A1 (INNATE PHARMA, published 2018).
# B1: antibody 11E1 (antibody, human IgG1, V domains shown)
# VH: EIQLQQSGPELVKPGASVKVSCKASGYAFTSYNMYWVKQSHGKSLEWIGYIDPYNGGTSYNQKFKGKATLTVDKSSSTAYMHLNSLTSEDSAVYYCARGYGNYKAWFAYWGQGTLVTVSA
# VL: DAVMTQTPKFLLVSAGDRVTITCKASQSVTNDVAWYQQKPGQSPKLLIYYASNRYTGVPDRFTGSGYGTDFTFTISTVQAEDLAVYFCQQDYSSLTFGAGTKLELK
# notes: Produced as chimeric human IgG1 with heavy chain N297Q (Kabat EU numbering); also called 1E11
# B2: antibody 6E1 (antibody, human IgG1, V domains shown)
# VH: EFQLQQSGPELVKPGASVKVSCKASGYAFTSYNMYWVKQSHGKRLEWIGYIDPYNGGSSYNQKFKGKATLTVDKSSSTAYMHLNNLTSEDSAVYYCARGYNNYKAWFAYWGQGTLVTVSA
# VL: SIVMTQTPKFLLVSAGDRVTITCKASQSVTNDVAWYQQKPGQSPKLLIYYASNRYTGVPDRFTGSGYGTDFTFTISTMQAEDLAVYFCQQDYSSLTFGAGTKLELK
# notes: Produced as chimeric human IgG1 with heavy chain N297Q (Kabat EU numbering)
# B3: antibody 3C12 (antibody, human IgG1, V domains shown)
# VH: QIQLQQSGPELVKPGASVKVSCKASGYAFASYNMNWVKQSHGKSLDWIGYIDPYNGGSSYNLTFKGKATLTVDKSSTTAYMHLNSLTSEDSAVYYCARGYGNYKAWFAYWGQGTLVTVSA
# VL: DVVMTQTPKFLLVSAGDRVTITCKASQSVSNDVAWYQQKPGQSPKLLIYYASTRYTGVPDRFTGSGYGTDFTFTISTVQAEDLAVYFCQQDYSSLTFGAGTKLELKR
# notes: Produced as chimeric human IgG1 with heavy chain N297Q (Kabat EU numbering); RTVAAP)
# Experiments:
# [1] = biological target: T1, human CD73 expressed at the cell surface (human, UniProt P21589 27-549); assay: flow cytometry on MDA-MB-231 cells pre-incubated with 200 µM APCP
# T1 construct: GPI-anchored dimer on cells; also called huCD73; cellular CD73
# T1 sequence: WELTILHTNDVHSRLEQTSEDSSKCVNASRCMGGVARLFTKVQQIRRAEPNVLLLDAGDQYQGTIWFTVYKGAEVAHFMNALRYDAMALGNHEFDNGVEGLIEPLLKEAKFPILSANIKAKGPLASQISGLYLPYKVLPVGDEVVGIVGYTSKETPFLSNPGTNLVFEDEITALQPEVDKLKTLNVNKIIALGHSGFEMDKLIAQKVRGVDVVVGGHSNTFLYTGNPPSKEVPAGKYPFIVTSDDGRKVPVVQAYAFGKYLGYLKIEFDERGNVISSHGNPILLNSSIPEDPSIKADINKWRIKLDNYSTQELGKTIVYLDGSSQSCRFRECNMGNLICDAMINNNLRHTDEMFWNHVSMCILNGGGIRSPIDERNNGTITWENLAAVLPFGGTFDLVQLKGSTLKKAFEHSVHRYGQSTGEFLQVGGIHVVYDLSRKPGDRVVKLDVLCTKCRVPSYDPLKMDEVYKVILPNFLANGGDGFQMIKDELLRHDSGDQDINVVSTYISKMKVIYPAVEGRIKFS
# Description: (§1) MDA-MB-231 cells are available from ATCC (reference HTB-26). 10⁵ cells resuspended in PBS/0.2% BSA/0.02% NaN3 (named “staining buffer”) are distributed into round bottom 96W-microplates. Dose-range of anti-CD73 antibodies was added to the plates and cells are incubated for 45 min at 4° C. Cells were washed three times in staining buffer by spinning plates at 400 g for 3 min at 4° C. PE-coupled goat anti-mouse or goat anti-human IgG Fc fragment secondary antibodies (Beckman Coulter) diluted in staining buffer were added to the cells and plates are incubated for 30 additional minutes at 4° C. Cells were washed three times as described above and analyzed on an Accury C6 flow cytometer equipped with an HTFC plate reader.
# (§2) Cells were pre-incubated at 37° C. for 30 minutes in the presence or not of 200 μM adenosine 5′-(α,β-methylene)diphosphate (APCP), followed by addition of antibodies. APCP is an analog of ADP and binds irreversibly to the active site of CD73. When bound by APCP, CD73 changes conformation from an “open” conformation to a “closed” conformation. mAbs 11E1, 8C7, 3C12 and 6E1 bound MDA-MB-231 cells with good affinity both in the presence and absence of APCP. In the presence of APCP, the EC50 was similar to that observed in the absence of APCP. The plateau for maximal binding of 11E1, 8C7, 3C12 and 6E1 was higher in the absence of APCP than in the presence of APCP, while the inverse was true for AD2.
# [2] = biological target: T1, human CD73 expressed at the cell surface; assay: cell-based or functional assay
# [3] = biological target: T1, human CD73 expressed at the cell surface; assay: flow cytometry titration on a human-CD73-expressing recombinant host cell line, median of fluorescence
# [4] = biological target: T1, human CD73 expressed at the cell surface; assay: flow cytometry titration on MDA-MB-231 cells (endogenous CD73), median of fluorescence
# Description: as §1
# Median of fluorescence vs. antibodies concentration was plotted on graphs and EC50 is calculated using Graph Pad Prism program.
# [5] = biological target: T1, human CD73 expressed at the cell surface; assay: cell-based or functional assay; remark: listed apart in the source
# [6] = biological target: T1, human CD73 expressed at the cell surface; assay: flow cytometry on MDA-MB-231 cells, medium (no APCP)
# Description: as §1, §2
# [7] = biological target: T2, recombinant human CD73-His extracellular domain protein (soluble dimer) (human, UniProt P21589 27-547); assay: SPR (Biacore T100), antibody captured on Protein-A, soluble dimeric CD73 injected 1.23-300 nM, 1:1 model, bivalent affinity
# T2 construct: Purified as a dimer; also called huCD73; soluble recombinant human CD73
# T2 sequence: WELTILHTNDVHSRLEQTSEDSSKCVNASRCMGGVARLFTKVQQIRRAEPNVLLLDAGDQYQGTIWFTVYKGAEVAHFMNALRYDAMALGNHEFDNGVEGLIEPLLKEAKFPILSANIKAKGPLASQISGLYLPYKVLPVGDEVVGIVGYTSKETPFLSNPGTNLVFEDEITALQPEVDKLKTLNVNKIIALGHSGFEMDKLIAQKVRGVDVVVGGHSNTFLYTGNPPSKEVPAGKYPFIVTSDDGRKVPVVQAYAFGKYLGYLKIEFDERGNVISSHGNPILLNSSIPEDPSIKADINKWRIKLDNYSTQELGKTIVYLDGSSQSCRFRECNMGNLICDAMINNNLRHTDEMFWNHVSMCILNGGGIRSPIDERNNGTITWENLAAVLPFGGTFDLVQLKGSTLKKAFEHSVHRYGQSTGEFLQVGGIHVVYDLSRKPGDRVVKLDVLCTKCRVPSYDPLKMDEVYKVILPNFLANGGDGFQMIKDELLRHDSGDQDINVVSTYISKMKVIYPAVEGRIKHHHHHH
# Description: SPR measurements were performed on a Biacore T100 apparatus (Biacore GE Healthcare) at 25° C. In all Biacore experiments HBS-EP+(Biacore GE Healthcare) and NaOH 10 mM served as running buffer and regeneration buffer respectively. Sensorgrams were analyzed with Biacore T100 Evaluation software. Protein-A was purchase from (GE Healthcare). Human soluble dimeric CD73 proteins were cloned, produced and purified at Innate Pharma.
# Protein-A proteins were immobilized covalently to carboxyl groups in the dextran layer on a Sensor Chip CMS. The chip surface was activated with EDC/NHS (N-ethyl-N′-(3-dimethylaminopropyl) carbodiimide hydrochloride and N-hydroxysuccinimide (Biacore GE Healthcare). Protein-A was diluted to 10 μg/ml in coupling buffer (10 mM acetate, pH 5.6) and injected until the appropriate immobilization level was reached (i.e. 2000 RU). Deactivation of the remaining activated groups was performed using 100 mM ethanolamine pH 8 (Biacore GE Healthcare).
# Affinity study was carried out according to a standard Capture-Kinetic protocol recommended by the manufacturer (Biacore GE Healthcare kinetic wizard). Serial dilutions of human recombinant soluble dimeric CD73 proteins, ranging from 1.23 to 300 nM were sequentially injected over the captured anti-CD73 antibodies and allowed to dissociate for 10 min before regeneration. The entire sensorgram sets were fitted using the 1:1 kinetic binding model. Bivalent affinities and kinetic association and dissociation rate constants are shown below in Table 2 below.
# [8] = biological target: T2, recombinant human CD73-His …; assay: cell-based or functional assay
Binder,EC50 [1] [µg/mL],decrease of the enzymatic activity of cellular CD73 (MDA-MB-231 cells) [2] [%],EC50 (read off the curve) [3] [µg/mL],EC50 (read off the curve) [4] [µg/mL],"EC50 for neutralization of the enzymatic activity of cellular CD73 (MDA-MB-231 cells, free phosphate from AMP) [5] [µg/mL]",EC50 [6] [µg/mL],Kd [7] [nM],EC50 for CD73 blockade (enzymatic activity of soluble recombinant human CD73-his) [8] [µg/mL]
B1,0.0375,> 75,~0.4,~0.1,0.195,0.0611,0.822,0.41
B2,0.0395,> 75,~0.4,~0.1,0.209,0.0584,0.819,0.33
B3,0.0431,> 75,~0.6,~0.07,0.21,0.0572,0.682,0.41
